assay: soluble on expression in E. coli; label from the status in PepcDB or PDB records

Row | Sequence | soluble on expression in E. coli
1 | MGSDKIHHHHHHAQQAPAPCGLVPSARQLEWYNREMIAFFHFGINTFEEYVNEGDGKASTAIFNPTALDCRQWMQTLKAAGIPAAILTAKHADGFCLWPSKYTDYSVKNAAWKNGKGDVVREFVDACEEYGLKAGIYLGPHDRHEHLSPLYTTERYKEYYAHQLGELMSDYGKIWETWWDGAGADELTTPVYRHWYKIVREKQPDCVIFGTKNSYPFADVRWMGNEAGEAGDPCWATTDSVAIRDEAQYYKGLNEGMLDGDAYIPAETDVSIRPSWFYHAEEDSRVKSVRELWDIYCTSVGRNSVLLLNFPPDRRGLIHSTDSLHAALLKQGIDETFSTNLLRGAKVKATNVRGAKYSPEKMLDNEKNTYFAGKDGEVKADIIFTLPKTIEFDCLMIEEVIELGHRTTKWSVEYTVDGKNWITIPEATDKQAIGHKWIVRLAPVKAKQVRLRIQDGKACPAIHTFGVYKQSPVFKL | not soluble
2 | MPALSGGDGVIRFQQVSKAYRGGRQALQKVDFHLRRGEMAFLGGHSGAGKSTLLKLICAIERPTDGKISFNGHDITRIPNKDIPFLRRNIGIVFQDHRLLMDRSIYDNVALPMRIESISENEIKRRVSAALDKTGLLDKARCLPSQLSGGEQQRVGIARAVVNRPTLLLADEPTGNLDPELSSRVLRLFEEFNRAGVTILLATHDIHLVNSRPQYRHLELNQGFLSEVADYGR | not soluble
3 | MGSDKIHHHHHHMPILLLAQSDAHLSLGAAQGPGAELDRRACEQLDIPVLRRPLGGGVVWVDPGQLNYFFIFPAAAGVRRAPELFDRIAPWVLAVHAHFGLEVEVRGGQDFWCRGRKIGGTGAASIGHSLVLGGSFILEAQWTSFADCVAAPSAGFRAWLKEALEEDLGSWSRLLGRVVGPEVVLDACPALLHAAGWDVVVTRPTEAERRAMTQVELEDVDWEQPVRRRVRAGIKLKAGAFLTEQHWPDGHWLRVWTENGTFRRIAGSAWSAGQGDTLTGLQPGSERFDERLREMAGAGAALWGERLSETAVWAD | not soluble
4 | MAHHHHHHMASMNHPDELEGSATSGVLCPLTAYEEVPPTKTRSQIIKEQLLDLENYSFEIPDRPEGDPSGKLAYLDMCEQLHKESFMKFPTHSVANSLCEGKESLDVSFFALGKKGSAALAAALRVNLTIRKLSLLRNHITPSGAMEIARALSETKVVSDLDLSENLLGLTDADDIQGGAVVAEFLKPGNVLKTLSLRDNKLSDQHVTEFAEAAIDNTELHSLDLSFNRIGYIGAIELANILSKNADLQEINLEWNQFQTIGSRHILAEGLLLNNTIKRFNMSWNGLDDACGVLVGRIISENDIEEIVVAHNRIGPAGAEAIAKGLLNTSALTTLILDDNPMQNEGCAAILRVVGEAATLTNVSLQQCRCDSSVVLEADRVMKEVRPDLDIRISEGCCAKVVM | not soluble
5 | MAGDPMSGSKTSAEKKESETEKSSDIAQVKIKDVSYTLPSKYDKSTSDDQLVLKVNVAVKNTGKDPLNVDSMDFTLYQGDTKMSDTDPEDYSEKLQGSTINADKSVEGNLFFVVDKGKQYELNYTPESYGDKKPKSVTFKIDGKDKKILATADKLQDSAKALSAYVDVLLFGKDNADFEKITGANKNEIVNDFNESAKDGYLSASGLSSTYADSKALDNIVNGIKEGLSKNSSIQAKTTSISKDEAIVEATVKPVDASSLSDRIEDKVKDYYSKNSSASYEEAVKYALQVYPEEFKKLGPASSEKTVEVKMKKNDIDQWQLDMDDYRAAELVEAFIKELEHHHHHH | soluble
6 | MMIDDSKVSFVIPTINEEGTIGSVIDGIRSEFPNSEIIVVDTNSTDRTREIARSKGARVIEEPRRGYGRAYQTGIPAASGEIIVCMDGDGTYPTDVVKPLIELLIADRVDFISCDRITFRTSKNYTTLHYVGNMVLNLTIRILFKVRMVDSQSGMWVFRSEIYRKMKNLGNGMSFSQNIKIEAVRHGVFMEIPIRYGVRITKPKLKTWHDGFHNLFALFVKRVSE | not soluble
7 | MGSDKIHHHHHHMNKSIRSSTLTRIRLIEAASQVFASLGVQGATTREIARVAGVNEVTLFRHFASKEQLLGAVIKNALALQTEALAYPEAWTQDLKIDLRQYAHLYNTMLEAQEDLIRTFIGEAKRHPEAAKQVIQEAAKPLREKLVAYLESSQKLGTVRVDLAPFPAVDMFTGMLLAGMLCRSAKFNQGSYSCEDYIETCVDIFVRGISTSNSSQCGCKF | not soluble
8 | MAEVKKKIKPGAIEAHAEELAIVVHYEVQEVSTQSDGSQKVISKEPGEKKISVKSLSEKTNVPLLATEIIEKCKLIHPSKAGQVEELLYQLQSRGGGGGADAKAKPAAKPAAASPAKSAAAAPPPPSNVAQSPQKPGQPPSTPSKKPPAAAGAPAPMLNGKPAPKAQSRLDAEAEERADLQARRQAQAMQIFKMQQKQYEQAYMNKLDEYIEGLYEEEMPKKVRATGMIAQLFRNTENFEVLLSHETLMQTLSRVLREDGKRSIDLCTNIISVFFSVSNFTQFHGLIMQNQVGALTMDLIDLEIKRTEHRASEENISPAMVAQKALEASQGQVTLSEREKKLLALIQKQDRLLYIAFYMLLNLSEDIEVERKMKKKNIVVYLVKMLERSNVELLILATTFLKKLSIYKENKETMSSCKIVEKLMKFVPVLNDVLLMSVLRLLHNLSFDHSLRDDMVKHGLIPKAVELMMVPRFQPVVLGLLYHISMEDKYKSLFTFTDCLNKMYDMLMRVQADLRNTPELIALAVNLTQNPRNAETMCEGDRFDKMMRRAFQTCDELMFKVLRNLSQQEGINIKRRFGPYVEQLVTLLRAPDITAELFVEVLGCLANLYIPEFDFLGLVRKHDLLTFLATYAQPGAVDDDILLEVVMFVGVLCNEGTAPLIVSSGLVTTLFQLMGDKKEDDEFVLQIAFTFHKFLLHDETRASLLTNTQQVVFYLVDLLQDKNKEVRRVADQCLDIIMDTDEEWAVQIRNLKFESFNQEWLDVVSQPAGGMAAHAGRQRNGYDDETEVDYSGGDGYYNIGDQRLVADFDDLGTNGGTWGPGDEGLQGGYEGNYDGYDEEELRQGYAM | not soluble
9 | MGSDKIHHHHHHMSDEKKSTDIDLKNLKAGGFIKERGKDLFTVRLRVPGGRMPVARLKKIAEVAEKYGQGMVHLSVRQSVELININFRDFDAVVAELGEGTQKVASCGARVRVPTACGGCEYNPNGLVDTQKSALEVDEKLFGTSTGHHKFKVGFAGCPFDCPKSATNDVGFQGAIWPVLYADECIGCGLCDKSCTEDAIVMGDDGKPRFIPENCLYCGDCLKVCPSEAWRAEKKGYTVRIGGKWGRRPLVGTLFAEFLPEEQVFDFIAAVLDWYKEKAEGQGRIRLGDVIRAEGPDALLGYLRERFPAAVVDATIPPQRIATQIGKEKRVP | not soluble
10 | MATPFDGSNDATESRLLQLGRERLDPILAQQSDALQTQLSNQGIKLGSAAYDRAMTQQALHANDATDQLILQGHGQAFAEGQAIRNQPINEITALLSGSQVSNPQAAAYTPSTIPTTDNAGIIANNYQQKMDAYNAQMSQASSLAGGLFGLGGKLISLSDDDAKKDKERLADITPEMGLWKFHYKGEPADAPMRLGLMASEVEKVRPDAVSRRPDGYRQVDYGKALSLGALEHHHHHH | not soluble
11 | MSRRRKANPTKLSENAKKLAKEVENSQEENDCDMLAKPQTPTIIIPGHMDDTPNPAGSPHDASIKSSSSTISDHTSTSATTGISDFPDILAQTEHGCSVLIDGNHLREIINSVDTQDGKQDLLSDVIRQLTSIKERLTNDESPVKDDLKEDPDDMSPMLHAGNFDSEMLLRQHELMQHQQQQMIIANMLKATQSLPLLFNGGLNYEAILNNPVLNATIAGHLPNPLASNISLLQKSISAKLAAAGNMQTVEKVETPLNLSKDTPSPTAIPQSPLSGFRLPYSLGTNYGSDGQLFNNCSPNSSGKSTPGNTSVTSEVATPRPQAKSPNHIKRPMNAFMVWARDERRKILKAYPDMHNSNISKILGSRWKGMSNSEKQPYYEEQSRLSKLHMEQHPDYRYRPRPKRTCVIDGKKVRVNEYKTIMKTKKDLMWGDEPGFSQPSDLQMDLASHVNLLNDLTQHHHQSHLLQTAE | not soluble
12 | MDVFLMIRRHKTTIFTDAKESSTVFELKRIVEGILKRPPDEQRLYKDDQLLDDGKTLGECGFTSQTARPQAPATVGLAFRADDTFEALCIEPFSSPPELPDVMKPQDSGSSANEQAVQ | soluble
13 | MTEVYDLEITTNATDFPMEKKYPAGMSLNDLKKKLELVVGTTVDSMRIQLFDGDDQLKGELTDGAKSLKDLGVRDGYRIHAVDVTGGNEDFKDESMVEKYEMSDDTYGKRTDSVRAWKKKMQEEQGSAAPMENESDKLNEEAAKNIMVGNRCEVTVGAQMARRGEVAYVGATKFKEGVWVGVKYDEPVGKNDGSVAGVRYFDCDPKYGGFVRPVDVKVGDFPELSIDEI | soluble
14 | MKIALINENSQAAKNGIIYDALTTVTDKHGYQVFNYGMYGTEGESQLTYVQNGLLASILLTTKAADFVVTGCGTGVGAMLALNSFPGVTCGFASEPTEAYLFSQINGGNALSIPFAKGFGWGAELNLTLIFERLFAEPMGGGYPKERAIPEQRNARILSDLKKITYRDLLAIVKDIDQDFLKETISGAHFQEYFFANAEPSELVTYLKSVLEQ | not soluble
15 | MSNTVLVSGASGFIALHILSQLLKQDYKVIGTVRSHEKEAKLLRQFQHNPNLTLEIVPDISHPNAFDKVLQKRGREIRYVLHTASPFHYDTTEYEKDLLIPALEGTKNILNSIKKYAADTVERVVVTSSCTAIITLAKMDDPSVVFTEESWNEATWESCQIDGINAYFASKKFAEKAAWEFTKENEDHIKFKLTTVNPSLLFGPQLFDEDVHGHLNTSCEMINGLIHTPVNASVPDFHSIFIDVRDVALAHLYAFQKENTAGKRLVVTNGKFGNQDILDILNEDFPQLRGLIPLGKPGTGDQVIDRGSTTDNSATRKILGFEFRSLHESVHDTAAQILKKENRL | not soluble
16 | MTVFANRLLGPKGWLLNARVTIDGLFIASVEPDSAPLPGDVRVDTLLPAPGNLHSHSFQRAMAGMTEYRSRGRESFWTWRELMYRFLDRLTPEHVAAIAAQTFVEMQKAGYAAVGEFHYLHHRPGGGHYDDRAEMSARIVQAAAETGIGLTLLPVLYTHGGADGRALAGGQLRFGNDLDAYCTLVEGARAHTRTLAADARVGIAPHSLRAVSATDLAEVAARHPDGPVHIHIAEQTREVEEIEAAYGARPVDWLLNNAAVGPRWCLIHATHMSDAETRAMASTGAVAGLCPITEANLGDGIFNGVPYLEAGGAFGVGSDSNVLISLTEELRLLEYSQRLRDRERNVLAGAEGSTGAALYLGALRGGARALDRRAGEIAPGALADLVAIDSNAPALCALEPEQLLDGLIFAAGERVVSDLWSAGRHQVRAGRHVAEESIARRYGAALRDLLARV | not soluble
17 | FVRMIFSAEKSVWIQTPYLIPDDSMINALLVAVRSGVDVRIMIPCMPDHPFIYRATQYYANYLHKRGIKIYIYDSGFIHAKTMVIDDELAMVGTTNQDIRSYSLNFEVSTFIYNPDIAWMLAQVFEEDIEKSVLLTDEIIKKQGYWLRFKQNFSRLLSPVL | not soluble
18 | ELKDSYVDYTLLYDMIANRIGIEEAVVENGALRLMKNQVWAYDFLPHMLIAGGTGGGKTYFLLTIIEALLKSDAELFILDPKNADLADLGTIMTHVYSQKEQISACVEDFYERMMVRSRLMKEMPNYKTGENYAYLGLSPNFLVFDEYVAYMEMLTTKESAVILNKLKQIVMLGRQSGFFLILACQRPDA | not soluble
19 | MIDFRPFYQQIATSHLSAWLETLPLQLKQWEKTAHSDYAKWAKIATSMPTSPTSINLTDKVEAVLAEALPEGEKQYLIYRLKQLMPWRKGPYHLHGVHIDTEWRSDFKWQRVLPHLAPLKDRTILDVGCGNGYHMWRMVGEDAQMVVGIDPTELFLCQFEAVRQLLGNDRRANLIPLGLEQMQPLAAFDTVFSMGVLYHRKSPLDHLSQLKAQLVKGGELVLETLIIDGDINDILTPADRYAKMKNVYFIPSVAALINWLKKIGFKNARCVDQSVTTLAEQRKTEWLENESLVDFLDPTDQRKTIEGLPAPKRAVILANA | not soluble

From the DeepSol protein solubility set
